We go through four sequences from patent US10500249B2, “Compositions and methods for preventing or treating diseases, conditions, or processes characterized by aberrant fibroblast proliferation and extracellular matrix deposition” (MOERAE MATRIX, INC., priority 2014, dated 2019).

What all share (experiment): Kinase Profiling Assay
Common to all, as to type: biochemical
Common to all, as to settings: 100 μM

The target of assay [1] is T1, EGFR(L861Q) (h) (Homo sapiens, UniProt P00533, L861Q).
T1 construct: purchased Millipore
In a few lines:
(§1)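 Radiometric filter-binding format: cationic substrate takes up labeled phosphate from ATP unless the inhibitor peptide blocks the kinase. Substrate bound to an anionic filter, scintillation-counted, normalized to 100% activity control. Duplicates; part of a 266-kinase selectivity panel for MK2 peptides.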

Assay [2] addresses BTK(R28H) (h) (Homo sapiens, UniProt Q06187, R28H). In a few lines:
as §1

Assay [3] concerns the target T2, cSRC (h) (Homo sapiens, UniProt P12931).
T2 construct: purchased Millipore
In a few lines:
as §1

Assay [4] deals with Flt1 (h) (Homo sapiens, UniProt P17948). The method in brief: as §1
Assay [5] concerns the target T3, EphB4 (h) (Homo sapiens, UniProt P54760).
T3 sequence (P54760 16-987): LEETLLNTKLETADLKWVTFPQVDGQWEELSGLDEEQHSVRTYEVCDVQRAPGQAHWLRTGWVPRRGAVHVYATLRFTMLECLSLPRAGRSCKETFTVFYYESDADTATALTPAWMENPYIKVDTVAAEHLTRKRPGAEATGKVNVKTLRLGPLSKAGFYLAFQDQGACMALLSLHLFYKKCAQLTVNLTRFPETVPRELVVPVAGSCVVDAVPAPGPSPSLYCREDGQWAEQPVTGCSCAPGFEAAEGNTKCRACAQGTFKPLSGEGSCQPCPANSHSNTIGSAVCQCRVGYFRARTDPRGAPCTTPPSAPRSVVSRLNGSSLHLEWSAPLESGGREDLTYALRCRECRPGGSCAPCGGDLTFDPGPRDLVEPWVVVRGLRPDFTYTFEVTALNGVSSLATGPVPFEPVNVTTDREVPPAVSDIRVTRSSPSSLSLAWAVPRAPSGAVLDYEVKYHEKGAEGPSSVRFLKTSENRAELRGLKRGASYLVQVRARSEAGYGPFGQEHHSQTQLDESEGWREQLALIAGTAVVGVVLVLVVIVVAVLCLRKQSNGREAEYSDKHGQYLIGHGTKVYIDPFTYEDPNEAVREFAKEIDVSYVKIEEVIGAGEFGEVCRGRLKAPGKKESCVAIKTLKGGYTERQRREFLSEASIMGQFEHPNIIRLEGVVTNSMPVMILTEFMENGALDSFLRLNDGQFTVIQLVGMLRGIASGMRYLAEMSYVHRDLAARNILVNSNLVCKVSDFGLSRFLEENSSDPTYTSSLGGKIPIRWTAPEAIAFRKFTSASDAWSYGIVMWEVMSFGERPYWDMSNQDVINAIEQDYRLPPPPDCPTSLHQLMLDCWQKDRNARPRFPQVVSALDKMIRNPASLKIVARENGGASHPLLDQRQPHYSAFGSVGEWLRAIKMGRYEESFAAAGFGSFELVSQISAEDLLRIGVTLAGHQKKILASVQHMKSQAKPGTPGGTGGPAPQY
In a few lines: as §1

Assay [6] addresses T4, Pim-3 (h) (Homo sapiens, UniProt Q86V86).
T4 construct: purchased Millipore
In a few lines:
as §1

Assay [7] has as its target Fgr (h) (Homo sapiens, UniProt P09769). The method in brief: as §1
Assay [8] addresses T5, PKG1β (h) (Homo sapiens, UniProt Q13976).
T5 sequence (Q13976 1-686 isoform Q13976-2): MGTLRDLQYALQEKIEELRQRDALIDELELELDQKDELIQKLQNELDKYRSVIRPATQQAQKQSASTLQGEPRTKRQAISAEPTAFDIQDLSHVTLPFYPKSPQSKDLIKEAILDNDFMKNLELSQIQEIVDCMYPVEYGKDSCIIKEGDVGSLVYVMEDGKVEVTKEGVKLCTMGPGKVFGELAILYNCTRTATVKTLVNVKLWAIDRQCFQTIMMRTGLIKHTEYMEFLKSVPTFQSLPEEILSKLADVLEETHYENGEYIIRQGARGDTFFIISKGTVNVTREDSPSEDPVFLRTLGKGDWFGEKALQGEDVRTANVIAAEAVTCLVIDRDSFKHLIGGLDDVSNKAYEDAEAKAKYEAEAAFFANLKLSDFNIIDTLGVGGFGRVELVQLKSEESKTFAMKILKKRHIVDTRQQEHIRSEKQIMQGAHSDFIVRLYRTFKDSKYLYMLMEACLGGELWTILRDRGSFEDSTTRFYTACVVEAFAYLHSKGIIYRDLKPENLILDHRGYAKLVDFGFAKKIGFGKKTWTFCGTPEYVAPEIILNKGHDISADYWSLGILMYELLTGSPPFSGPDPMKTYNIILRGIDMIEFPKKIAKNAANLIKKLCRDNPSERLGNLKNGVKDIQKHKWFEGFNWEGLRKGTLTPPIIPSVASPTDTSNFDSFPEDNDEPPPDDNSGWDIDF
The method in brief:
as §1

The target in assay [9] is T6, PKCτ (h) (Homo sapiens, UniProt P41743).
T6 sequence (P41743 1-596): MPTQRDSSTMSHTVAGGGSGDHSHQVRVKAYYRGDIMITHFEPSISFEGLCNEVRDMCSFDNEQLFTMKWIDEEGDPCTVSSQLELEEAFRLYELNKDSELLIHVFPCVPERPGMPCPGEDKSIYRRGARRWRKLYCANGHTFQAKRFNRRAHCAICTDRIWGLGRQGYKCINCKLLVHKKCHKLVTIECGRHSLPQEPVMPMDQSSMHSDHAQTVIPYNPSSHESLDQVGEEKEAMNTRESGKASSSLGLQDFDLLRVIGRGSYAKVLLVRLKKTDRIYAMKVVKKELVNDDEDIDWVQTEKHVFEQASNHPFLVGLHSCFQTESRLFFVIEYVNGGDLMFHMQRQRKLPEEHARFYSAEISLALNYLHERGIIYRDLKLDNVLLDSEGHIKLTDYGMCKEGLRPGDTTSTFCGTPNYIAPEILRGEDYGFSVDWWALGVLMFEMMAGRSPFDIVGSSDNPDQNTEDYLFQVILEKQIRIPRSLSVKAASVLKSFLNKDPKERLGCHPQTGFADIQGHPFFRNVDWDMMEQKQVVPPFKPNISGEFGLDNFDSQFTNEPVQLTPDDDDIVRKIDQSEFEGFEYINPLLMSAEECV
In a few lines: as §1

The target in assay [10] is T7, HIPK2 (h) (Homo sapiens, UniProt Q9H2X6).
T7 construct: purchased Millipore
In a few lines:
as §1

Chain of Flt1 (h) (P17948 27-1338): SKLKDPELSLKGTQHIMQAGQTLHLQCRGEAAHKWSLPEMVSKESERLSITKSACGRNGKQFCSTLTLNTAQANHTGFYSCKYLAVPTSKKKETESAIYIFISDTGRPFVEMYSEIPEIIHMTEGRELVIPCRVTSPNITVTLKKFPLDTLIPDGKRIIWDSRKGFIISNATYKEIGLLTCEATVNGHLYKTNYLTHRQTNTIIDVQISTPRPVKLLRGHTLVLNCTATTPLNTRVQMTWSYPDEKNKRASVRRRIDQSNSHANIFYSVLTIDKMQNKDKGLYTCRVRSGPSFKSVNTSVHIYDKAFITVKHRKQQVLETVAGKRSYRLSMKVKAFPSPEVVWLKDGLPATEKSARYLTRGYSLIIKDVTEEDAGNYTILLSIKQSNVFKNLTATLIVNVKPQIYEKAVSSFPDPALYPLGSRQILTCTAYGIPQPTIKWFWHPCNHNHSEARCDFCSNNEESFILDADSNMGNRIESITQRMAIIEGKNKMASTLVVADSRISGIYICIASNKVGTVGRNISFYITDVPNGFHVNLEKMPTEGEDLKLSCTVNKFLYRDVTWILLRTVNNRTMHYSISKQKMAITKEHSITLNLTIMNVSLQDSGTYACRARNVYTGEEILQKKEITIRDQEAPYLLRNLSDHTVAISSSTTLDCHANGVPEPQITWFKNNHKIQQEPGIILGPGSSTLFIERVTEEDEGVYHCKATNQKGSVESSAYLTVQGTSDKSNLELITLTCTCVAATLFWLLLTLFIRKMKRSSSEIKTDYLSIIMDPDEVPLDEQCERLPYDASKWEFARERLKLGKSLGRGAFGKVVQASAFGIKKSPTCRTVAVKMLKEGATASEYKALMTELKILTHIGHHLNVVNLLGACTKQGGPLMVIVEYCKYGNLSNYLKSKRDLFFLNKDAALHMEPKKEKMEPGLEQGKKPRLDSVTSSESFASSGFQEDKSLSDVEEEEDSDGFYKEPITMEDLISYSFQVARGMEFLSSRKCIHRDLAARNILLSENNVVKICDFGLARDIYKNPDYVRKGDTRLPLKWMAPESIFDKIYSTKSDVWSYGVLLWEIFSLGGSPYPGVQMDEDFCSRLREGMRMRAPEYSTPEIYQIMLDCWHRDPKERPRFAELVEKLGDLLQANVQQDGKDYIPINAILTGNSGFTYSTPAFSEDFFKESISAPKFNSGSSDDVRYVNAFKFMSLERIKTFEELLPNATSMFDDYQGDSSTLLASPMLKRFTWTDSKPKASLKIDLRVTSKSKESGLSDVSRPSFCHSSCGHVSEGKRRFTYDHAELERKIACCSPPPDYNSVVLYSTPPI
T7 sequence (Q9H2X6 whole entry): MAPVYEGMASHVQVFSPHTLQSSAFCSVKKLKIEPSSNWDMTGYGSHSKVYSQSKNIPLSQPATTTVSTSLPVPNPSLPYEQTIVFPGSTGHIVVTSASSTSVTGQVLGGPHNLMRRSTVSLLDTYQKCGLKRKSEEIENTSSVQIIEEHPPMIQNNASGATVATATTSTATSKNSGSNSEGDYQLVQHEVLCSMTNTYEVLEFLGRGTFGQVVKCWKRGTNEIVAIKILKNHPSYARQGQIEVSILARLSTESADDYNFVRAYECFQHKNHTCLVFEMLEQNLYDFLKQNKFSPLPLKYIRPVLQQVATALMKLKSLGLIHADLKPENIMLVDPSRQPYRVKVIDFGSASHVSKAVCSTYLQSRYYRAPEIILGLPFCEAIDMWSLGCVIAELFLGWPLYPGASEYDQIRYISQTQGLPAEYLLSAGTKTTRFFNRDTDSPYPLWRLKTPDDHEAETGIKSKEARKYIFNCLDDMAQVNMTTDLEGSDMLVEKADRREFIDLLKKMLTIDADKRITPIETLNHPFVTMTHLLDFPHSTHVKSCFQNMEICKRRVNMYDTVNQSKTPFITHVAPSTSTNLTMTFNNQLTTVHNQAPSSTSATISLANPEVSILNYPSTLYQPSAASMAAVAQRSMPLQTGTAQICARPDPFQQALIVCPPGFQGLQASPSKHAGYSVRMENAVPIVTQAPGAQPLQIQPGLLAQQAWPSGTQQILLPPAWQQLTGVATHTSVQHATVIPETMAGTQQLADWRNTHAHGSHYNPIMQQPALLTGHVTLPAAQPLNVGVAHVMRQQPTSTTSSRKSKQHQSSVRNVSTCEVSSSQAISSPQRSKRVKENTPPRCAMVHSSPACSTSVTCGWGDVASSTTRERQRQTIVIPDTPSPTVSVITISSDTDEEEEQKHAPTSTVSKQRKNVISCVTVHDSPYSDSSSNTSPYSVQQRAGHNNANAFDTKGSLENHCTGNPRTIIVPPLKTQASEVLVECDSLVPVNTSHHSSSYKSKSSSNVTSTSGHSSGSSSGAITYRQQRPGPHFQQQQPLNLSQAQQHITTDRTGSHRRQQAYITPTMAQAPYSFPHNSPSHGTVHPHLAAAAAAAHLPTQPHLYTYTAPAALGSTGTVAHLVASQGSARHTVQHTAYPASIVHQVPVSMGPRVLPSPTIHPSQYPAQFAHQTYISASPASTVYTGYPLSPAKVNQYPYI
Chain of BTK(R28H) (h) (Q06187 whole entry R28H): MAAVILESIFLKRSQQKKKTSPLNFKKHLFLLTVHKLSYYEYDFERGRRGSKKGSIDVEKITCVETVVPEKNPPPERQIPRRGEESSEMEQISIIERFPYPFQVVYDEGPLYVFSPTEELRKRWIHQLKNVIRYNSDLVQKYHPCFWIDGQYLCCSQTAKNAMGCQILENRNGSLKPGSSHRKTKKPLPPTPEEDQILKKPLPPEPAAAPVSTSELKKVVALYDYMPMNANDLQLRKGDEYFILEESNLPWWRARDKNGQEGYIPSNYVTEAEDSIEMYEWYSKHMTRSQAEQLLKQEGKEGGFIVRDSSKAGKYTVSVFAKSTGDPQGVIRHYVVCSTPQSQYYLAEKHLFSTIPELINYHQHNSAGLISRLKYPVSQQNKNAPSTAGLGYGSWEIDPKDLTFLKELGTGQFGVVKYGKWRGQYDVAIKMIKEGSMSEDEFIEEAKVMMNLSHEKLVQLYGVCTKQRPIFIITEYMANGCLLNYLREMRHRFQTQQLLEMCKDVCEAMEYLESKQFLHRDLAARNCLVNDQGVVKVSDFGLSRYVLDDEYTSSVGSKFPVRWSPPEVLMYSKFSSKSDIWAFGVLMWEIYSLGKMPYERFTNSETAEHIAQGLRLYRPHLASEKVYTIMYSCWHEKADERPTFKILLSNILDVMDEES

As for FAKLAARLYRKALARQLGVAA [MMI-0300], the “% activity” value in assay [1] stood at 25%; in assay [2] it was 74%; in assay [3], 26%; in [4], 69%; in assay [5], 44%; in [6], 80%. Moreover, the “% activity” value in assay [7] is reported as 60%; in assay [8], 50%; in [9] it was 68%; in assay [10], 73%.

“HRRIKAWLKKIKALARQLGVAA (Mammalian) [MMI-0500]”: the “% activity” value in [1] is on record as 15%; in assay [2] it was 10%; in [3] it was 30%; in assay [4] it was 27%; in [5], 38%; in [6], 37%. Besides, the results for the “% activity” value in assay [8], in assay [9] and in [10] were 24%, 7% and 38%, respectively.

With “YARAAARQARAKALNRQLGVA (Mammalian) [MMI-0200]”, the “% activity” value in assay [1] is reported as 74%; in assay [3], 32%; in assay [4], 96%; in assay [5], 131%; in [6], 94%; in assay [7], 71%. Moreover, the “% activity” value in assay [8] is recorded as 57%; in assay [9], 97%.

With KAFAKLAARLYRKALARQLGVAA [MMI-0400], the “% activity” value was 22% in [1]; 24% in [2]; 14% in assay [3]; 48% in [4]; 28% in assay [5]; 80% in assay [6]. Moreover, the “% activity” value is given as 47% in [7], 53% in assay [8], 46% in assay [9] and 90% in [10].
